The values below come from paper PMC6602295, “Structural mechanism for guanylate-binding proteins (GBPs) targeting by the Shigella E3 ligase IpaH9.8” (PLoS Pathogens, 2019).

The target in the experiment is T1, GBP1^LG-MD (LG-MD region of guanylate-binding protein 1, residues 1-479) (human, UniProt P32455 1-479).
T1 construct: also called C-terminally truncated GBP1; source: E. coli BL21(DE3), purified (Ni-NTA, ULP1 cleavage, second Ni-NTA, Superdex 200); not shown: His6-SUMO, N-terminal, cleaved
T1 sequence: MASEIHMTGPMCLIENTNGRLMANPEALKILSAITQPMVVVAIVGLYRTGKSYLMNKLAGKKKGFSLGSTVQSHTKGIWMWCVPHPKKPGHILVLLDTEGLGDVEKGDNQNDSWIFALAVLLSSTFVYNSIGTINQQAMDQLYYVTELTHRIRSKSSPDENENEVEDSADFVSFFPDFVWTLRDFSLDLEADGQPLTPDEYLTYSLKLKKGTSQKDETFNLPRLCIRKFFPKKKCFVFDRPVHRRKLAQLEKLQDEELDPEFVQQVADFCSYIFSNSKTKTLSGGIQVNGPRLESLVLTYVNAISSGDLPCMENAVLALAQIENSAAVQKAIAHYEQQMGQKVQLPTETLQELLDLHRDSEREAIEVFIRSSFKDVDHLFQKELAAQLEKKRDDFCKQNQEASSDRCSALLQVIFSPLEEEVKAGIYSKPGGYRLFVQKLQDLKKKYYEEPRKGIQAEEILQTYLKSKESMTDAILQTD
The experiment can be described thus: crystal structure; purified IpaH9.8^LRR and GBP1^LG-MD incubated overnight on ice at a 1.5:1 molar ratio, passed through Superdex 200 (25 mM Tris-HCl pH 8.0, 20 mM NaCl, 2 mM DTT), no nucleotide; crystals at 20°C in 1.6 M sodium/potassium phosphate pH 6.5; 3.6 Å. Particulars: both partners purified.

B1: IpaH9.8^LRR (Leucine-rich repeat domain of IpaH9.8, residues 22-252) (domain or fragment)
chain: TYADYFSAWDKWEKQALPGEERDEAVSRLKECLINNSDELRLDRLNLSSLPDNLPAQITLLNVSYNQLTNLPELPVTLKKLYSASNKLSELPVLPPALESLQVQHNELENLPALPDSLLTMNISYNEIVSLPSLPQALKNLRATRNFLTELPAFSEGNNPVVREYFFDRNQISHIPESILNLRNECSIHISDNPLSSHALPALQRLTSSPDYHGPRIYFSMSDGQQNTLHR
notes: E3 ubiquitin ligase IpaH9.8, Shigella flexneri, LRR domain, residues 22-252; source: E. coli BL21(DE3), purified (Ni-NTA, ULP1 cleavage, second Ni-NTA, Superdex 200); not shown: His6-SUMO, N-terminal, cleaved
In the case of B1, the binding result is listed as “binds”.
